Assay results taken from paper PMC4072508, “Genome-Wide Prediction and Validation of Peptides That Bind Human Prosurvival Bcl-2 Proteins” (PLoS Computational Biology, 2014).

T1: Bfl-1, Q16548
T1 chain: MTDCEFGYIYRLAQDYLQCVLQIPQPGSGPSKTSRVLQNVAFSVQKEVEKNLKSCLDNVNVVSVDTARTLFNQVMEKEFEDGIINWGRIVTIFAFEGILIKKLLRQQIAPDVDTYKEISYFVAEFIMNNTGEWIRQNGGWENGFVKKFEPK

T2: Bcl-w, Q92843
T2 chain: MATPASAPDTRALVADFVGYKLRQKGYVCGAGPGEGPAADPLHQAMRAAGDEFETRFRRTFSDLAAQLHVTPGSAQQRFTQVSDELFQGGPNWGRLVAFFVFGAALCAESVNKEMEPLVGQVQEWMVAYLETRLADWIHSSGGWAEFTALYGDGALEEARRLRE

T3: Mcl-1, Q07820
T3 chain: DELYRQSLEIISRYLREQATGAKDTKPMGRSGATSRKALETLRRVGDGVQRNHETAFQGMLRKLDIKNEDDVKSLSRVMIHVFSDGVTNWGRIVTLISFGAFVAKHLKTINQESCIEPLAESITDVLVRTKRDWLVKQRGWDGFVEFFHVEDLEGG


Biological target: T1, Bfl-1, Q16548
Experiment: peptide SPOT array, c-Myc-tagged receptor at 1 uM or 100 nM, anti-c-Myc-Cy3

SPOT signal as a fraction of Bim BH3's signal on the same receptor and array | Binder
0.1 | DFMGRTFAKPLVKMADEAYCPPRFPP [OTOF]
0.48 | HRTSNVLTLSLKRFANFSGGKITKDV [USP36]
0.42 | LKELDLSGNSLSHSAVKSLCKTLRRP [NLRP1]
0.01 | ASEASLFEEALEKYGKDFNDIRQDFL [MTA3]

Second part, the binder before the results:

Binder | SPOT signal as a fraction of Bim BH3's signal on the same receptor and array
RAGELDRARELMRIGKRFGAVLEALE [CC2D1B] | 0.16
NKDGKSVSNRLRRLSDNCGGKVLSIT [KIAA0430] | 0.31
AIPRAEVAELLVHSGDFLVRESQGKQ [FES] | 0.02
SSTMGQVGRQLAIIGDDINRRYDSEF [BAK1] | 0.4
ALTVKEMAQMLQSFGTELAETELPDD [MCF2] | 0.01
LFRRRDISSSLNSLADSNAREFEEES [MTA2] | 0.05

Biological target: T2, Bcl-w, Q92843
Experiment: as above

SPOT signal as a fraction of Bim BH3's signal on the same receptor and array | Binder
0.14 | DFMGRTFAKPLVKMADEAYCPPRFPP [OTOF]
0.65 | HRTSNVLTLSLKRFANFSGGKITKDV [USP36]
0.41 | LKELDLSGNSLSHSAVKSLCKTLRRP [NLRP1]
0.02 | ASEASLFEEALEKYGKDFNDIRQDFL [MTA3]

The next lines start with the binder.

Binder | SPOT signal as a fraction of Bim BH3's signal on the same receptor and array
RAGELDRARELMRIGKRFGAVLEALE [CC2D1B] | 0.13
NKDGKSVSNRLRRLSDNCGGKVLSIT [KIAA0430] | 0.61
AIPRAEVAELLVHSGDFLVRESQGKQ [FES] | 0.02
SSTMGQVGRQLAIIGDDINRRYDSEF [BAK1] | 0.72
ALTVKEMAQMLQSFGTELAETELPDD [MCF2] | 0.02
LFRRRDISSSLNSLADSNAREFEEES [MTA2] | 0.04

biological target: Bcl-xL, Q07817; experiment: as above
Sequence (Q07817 1-209): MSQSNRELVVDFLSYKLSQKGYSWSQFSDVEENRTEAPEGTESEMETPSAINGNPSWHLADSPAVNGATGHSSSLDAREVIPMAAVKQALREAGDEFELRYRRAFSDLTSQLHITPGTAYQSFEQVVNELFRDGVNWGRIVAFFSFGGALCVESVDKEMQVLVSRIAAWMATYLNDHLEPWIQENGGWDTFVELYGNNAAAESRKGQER

SPOT signal as a fraction of Bim BH3's signal on the same receptor and array | Binder
0.26 | DFMGRTFAKPLVKMADEAYCPPRFPP [OTOF]
0.55 | HRTSNVLTLSLKRFANFSGGKITKDV [USP36]
0.4 | LKELDLSGNSLSHSAVKSLCKTLRRP [NLRP1]
0.02 | ASEASLFEEALEKYGKDFNDIRQDFL [MTA3]

More lines, now with the values behind:

Binder | SPOT signal as a fraction of Bim BH3's signal on the same receptor and array
RAGELDRARELMRIGKRFGAVLEALE [CC2D1B] | 0.16
NKDGKSVSNRLRRLSDNCGGKVLSIT [KIAA0430] | 0.56
AIPRAEVAELLVHSGDFLVRESQGKQ [FES] | 0.03
SSTMGQVGRQLAIIGDDINRRYDSEF [BAK1] | 0.4
ALTVKEMAQMLQSFGTELAETELPDD [MCF2] | 0.03
LFRRRDISSSLNSLADSNAREFEEES [MTA2] | 0.08

Biological target: T3, Mcl-1, Q07820
Experiment: as above

SPOT signal as a fraction of Bim BH3's signal on the same receptor and array | Binder
0.1 | DFMGRTFAKPLVKMADEAYCPPRFPP [OTOF]
0.29 | HRTSNVLTLSLKRFANFSGGKITKDV [USP36]
0.13 | LKELDLSGNSLSHSAVKSLCKTLRRP [NLRP1]
0.02 | ASEASLFEEALEKYGKDFNDIRQDFL [MTA3]

Second part, the binder before the results:

Binder | SPOT signal as a fraction of Bim BH3's signal on the same receptor and array
RAGELDRARELMRIGKRFGAVLEALE [CC2D1B] | 0.06
NKDGKSVSNRLRRLSDNCGGKVLSIT [KIAA0430] | 0.21
AIPRAEVAELLVHSGDFLVRESQGKQ [FES] | 0.03
SSTMGQVGRQLAIIGDDINRRYDSEF [BAK1] | 0.84
ALTVKEMAQMLQSFGTELAETELPDD [MCF2] | 0.03
LFRRRDISSSLNSLADSNAREFEEES [MTA2] | 0.04

biological target: Bcl-2, P10415; experiment: as above
Sequence (P10415 1-217): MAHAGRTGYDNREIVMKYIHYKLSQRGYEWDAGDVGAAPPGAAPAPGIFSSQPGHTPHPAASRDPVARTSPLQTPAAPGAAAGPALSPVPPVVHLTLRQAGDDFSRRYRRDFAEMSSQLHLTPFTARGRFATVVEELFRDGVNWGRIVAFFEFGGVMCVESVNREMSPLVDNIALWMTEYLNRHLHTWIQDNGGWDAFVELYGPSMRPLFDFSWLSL

SPOT signal as a fraction of Bim BH3's signal on the same receptor and array | Binder
0.06 | DFMGRTFAKPLVKMADEAYCPPRFPP [OTOF]
0.2 | HRTSNVLTLSLKRFANFSGGKITKDV [USP36]
0.09 | LKELDLSGNSLSHSAVKSLCKTLRRP [NLRP1]
0.01 | ASEASLFEEALEKYGKDFNDIRQDFL [MTA3]

Further lines, the binder ahead of its results:

Binder | SPOT signal as a fraction of Bim BH3's signal on the same receptor and array
RAGELDRARELMRIGKRFGAVLEALE [CC2D1B] | 0.03
NKDGKSVSNRLRRLSDNCGGKVLSIT [KIAA0430] | 0.13
AIPRAEVAELLVHSGDFLVRESQGKQ [FES] | 0.01
SSTMGQVGRQLAIIGDDINRRYDSEF [BAK1] | 0.27
ALTVKEMAQMLQSFGTELAETELPDD [MCF2] | 0.01
LFRRRDISSSLNSLADSNAREFEEES [MTA2] | 0.02
